Test results published in patent publication US20130045922A1 (CHILDREN S MEDICAL CENTER, published 2013).

Biological target: I^125-VEGF
Assay: cell-based or functional assay

I^125-VEGF, sequence (P15692 whole entry): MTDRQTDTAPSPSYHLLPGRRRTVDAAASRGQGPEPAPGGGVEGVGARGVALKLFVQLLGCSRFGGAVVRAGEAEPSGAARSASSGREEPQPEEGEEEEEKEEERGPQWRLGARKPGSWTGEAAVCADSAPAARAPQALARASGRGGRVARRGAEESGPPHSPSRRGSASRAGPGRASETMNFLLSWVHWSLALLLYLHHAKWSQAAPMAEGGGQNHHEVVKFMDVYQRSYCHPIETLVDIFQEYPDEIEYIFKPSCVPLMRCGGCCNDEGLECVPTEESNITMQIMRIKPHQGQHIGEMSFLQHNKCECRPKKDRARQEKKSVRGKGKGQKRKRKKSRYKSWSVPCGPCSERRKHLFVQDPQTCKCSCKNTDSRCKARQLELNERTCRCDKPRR

Binder: DRVQAQTTTVVA [Ala-5 (DRVQAQTTTVVA)]
- ability of endothelial cells to bind VEGF in the presence of peptide: > 2 fold over original #237
